Measured values from US20200071424A1 (SHIONOGI, published 2020).
Where a chain is given by its changes, count along the chain named. Where two headings read alike, the source gives them in different places.

Experiments:
baboon EL [1] = molecular target: baboon EL (baboon); assay: cell-based or functional assay
cynomolgus monkey EL [2] = molecular target: cynomolgus monkey EL (cynomolgus monkey); assay: cell-based or functional assay
[3] = molecular target: human-mouse chimeric EL (construct not specified); assay: cell-based or functional assay
[4] = molecular target: T1, human [1-305]-mouse chimeric EL (human; mouse, UniProt Q9WVG5 306-500); assay: cell-based or functional assay
T1 sequence: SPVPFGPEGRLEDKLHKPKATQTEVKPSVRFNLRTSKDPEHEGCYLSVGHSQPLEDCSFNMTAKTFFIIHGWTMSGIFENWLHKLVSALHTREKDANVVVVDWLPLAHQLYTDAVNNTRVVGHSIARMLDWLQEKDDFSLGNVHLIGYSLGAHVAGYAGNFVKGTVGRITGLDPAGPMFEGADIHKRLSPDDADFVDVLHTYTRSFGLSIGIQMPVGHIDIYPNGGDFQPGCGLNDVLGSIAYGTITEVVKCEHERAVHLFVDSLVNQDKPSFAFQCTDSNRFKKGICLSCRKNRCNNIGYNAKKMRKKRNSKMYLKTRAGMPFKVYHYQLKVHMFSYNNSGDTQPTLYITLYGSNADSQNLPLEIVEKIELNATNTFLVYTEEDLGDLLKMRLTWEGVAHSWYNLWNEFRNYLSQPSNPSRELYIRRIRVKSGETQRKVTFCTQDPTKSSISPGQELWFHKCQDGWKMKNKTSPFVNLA

cynomolgus monkey EL [5] = molecular target: cynomolgus monkey EL (cynomolgus monkey); assay: cell-based or functional assay; remark: listed apart in the source
baboon EL [6] = molecular target: T2, baboon EL (baboon); assay: Biacore; EL captured by anti-C2-tag Ab; bivalent fit
T2 construct: Heparin extract
Method: (§1) The binding affinities of anti-EL antibodies were measured using Biacore. […] Then, anti-EL antibodies were added and the binding affinities were calculated by bivalent fitting of BIAevaluation software.

cynomolgus monkey EL [7] = molecular target: T3, cynomolgus monkey EL (cynomolgus monkey); assay: as above
T3 construct: Heparin extract; also called cynomolgus EL; Cynomolgus EL
Method: as §1

[8] = molecular target: T1, human [1-305]-mouse chimeric EL; assay: as above
Method: as §1

baboon EL [9] = molecular target: T2, baboon EL; assay: ELISA: antibody captured on anti-mouse IgG-Fc plate, EL heparin extract added, detection with biotin anti-C2-tag antibody and HRP-streptavidin, A450
Method: (§2) Assay buffer containing 15 μl of anti-EL antibody was added to anti-mouse IgG-Fc antibody-immobilized microtiter plate, and incubated for 2 hr. […] After washing the wells three times with 90 μL of washing buffer, 15 μl of assay buffer containing biotin-labeled anti-C2-tag antibody and HRP-labeled Streptavidin were added to the wells and incubated at room temperature for 1 hr. After washing the wells three times with 90 μL of washing buffer, 15 μL of TMB+—Substrate—Chromogen (DAKO) was added and incubated at room temperature for 30 min and then 15 μL of 0.05 M H2SO₄ was added and absorbance at 450 nm was measured (FIG. 3A to 3K).

cynomolgus monkey EL [10] = molecular target: T3, cynomolgus monkey EL; assay: as above
Method: as §2

mouse EL = molecular target: T4, mouse EL (mouse, UniProt Q9WVG5 21-500); assay: as above
T4 construct: Heparin extract
T4 sequence (looked up): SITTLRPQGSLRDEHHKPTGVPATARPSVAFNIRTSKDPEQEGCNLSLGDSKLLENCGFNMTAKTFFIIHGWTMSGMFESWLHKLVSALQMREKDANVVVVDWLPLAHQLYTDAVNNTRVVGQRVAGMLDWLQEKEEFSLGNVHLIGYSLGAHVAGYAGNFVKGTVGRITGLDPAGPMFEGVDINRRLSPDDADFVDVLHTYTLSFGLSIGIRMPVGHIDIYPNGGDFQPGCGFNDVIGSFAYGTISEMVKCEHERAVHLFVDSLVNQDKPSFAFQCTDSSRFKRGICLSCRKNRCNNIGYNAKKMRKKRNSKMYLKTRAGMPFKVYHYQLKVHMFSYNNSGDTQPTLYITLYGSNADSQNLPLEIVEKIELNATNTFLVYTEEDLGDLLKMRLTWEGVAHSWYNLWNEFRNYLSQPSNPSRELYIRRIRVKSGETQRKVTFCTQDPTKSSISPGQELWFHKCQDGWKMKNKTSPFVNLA
Method: as §2

[11] = molecular target: T5, human [1-157]-mouse chimeric EL (human; mouse, UniProt Q9WVG5 158-500); assay: as above
T5 construct: Heparin extract, detected by an anti-C2-tag antibody
T5 sequence: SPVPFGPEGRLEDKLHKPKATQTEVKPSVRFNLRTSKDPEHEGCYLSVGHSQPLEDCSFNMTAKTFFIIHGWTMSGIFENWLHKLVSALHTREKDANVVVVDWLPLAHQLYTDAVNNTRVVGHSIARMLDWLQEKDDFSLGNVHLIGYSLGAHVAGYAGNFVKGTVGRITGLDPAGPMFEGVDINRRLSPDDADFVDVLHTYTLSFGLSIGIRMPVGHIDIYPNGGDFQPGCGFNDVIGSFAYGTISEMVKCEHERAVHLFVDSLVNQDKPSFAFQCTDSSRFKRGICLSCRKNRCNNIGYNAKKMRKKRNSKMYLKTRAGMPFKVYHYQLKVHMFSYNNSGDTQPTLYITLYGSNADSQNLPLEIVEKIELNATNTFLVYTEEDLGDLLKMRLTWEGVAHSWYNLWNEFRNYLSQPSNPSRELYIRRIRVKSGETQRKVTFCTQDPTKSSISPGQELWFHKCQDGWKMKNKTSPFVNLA
Method: as §2

rabbit EL = rabbit EL (rabbit); assay: cell-based or functional assay

B1: 55A1 (antibody, mouse IgG2a, V domains shown)
VH: QIHLVQSGPELKKPGETVKISCKASGYTFTNYGMNWVKQAPGKGLKWMGWINTYSGVPTYAGDFKGRFAFSLETSASTAYLQINNLKNEDTATYFCARRGYYGRRYFDVWGTGTTVTVSS
VL: DIVLTQSPASLAVSLGQRATISCKASQSVDYDVDSYMHWYQQKPGQPPKLLIYAASNLASGIPARFSGGGSGTDFTLNIHPVEEEDVATYYCQQTIEDPPTFGGGTKLEIK
notes: mouse IgG2a from hybridoma; also called 55A1 (mouse mAb)
Baboon EL [1]
  Neutralizing activity IC50: 2 nM
Cynomolgus monkey EL [2]
  Neutralizing activity IC50: 1.5 nM
[3]
  Neutralizing activity IC50: 1.1 nM
[4]
  Neutralizing activity IC50: 1.1 nM
Cynomolgus monkey EL [5]
  Neutralizing activity IC50: 1.3 nM
Baboon EL [6]
  Kd: 1.2 nM
  koff: 0.00042 s⁻¹
  kon: 350000 M⁻¹ s⁻¹
Cynomolgus monkey EL [7]
  Kd: 1.7 nM
  koff: 0.00044 s⁻¹
  kon: 250000 M⁻¹ s⁻¹
[8]
  Kd: 0.73 nM
  koff: 0.00014 s⁻¹
  kon: 190000 M⁻¹ s⁻¹
Baboon EL [9]
  EC50 (read off the curve): ~10 ng/mL
Cynomolgus monkey EL [10]
  EC50 (read off the curve): ~5 ng/mL
Mouse EL
  binding result: no binding (tested: about 330 ng/mL)
[11]
  EC50 (read off the curve): ~4 ng/mL

B2: 14A1 (antibody, mouse IgG1, V domains shown)
VH: QIQLVQSGPELKKPGETVKISCKASGYTFTNYGMNWVKQAPGKGLKWMGWINTYSGVPTYADDFKGRFAFSLETSASTAYLQINNFKNEDTATYFCARFSYYGRHYFDYWGQGTALTASS
VL: DIVLTQSPASLAVSLGQRATISCKASQSVDYDGDSYMNWYQQKPGQPPKLLIYAASNLKSGIPARFSGSGSGTDFTLNIHPVEEEDAATYYCQQTTDDPPWTFGGGTKLEIK
notes: mouse IgG1 from hybridoma
Baboon EL [1]
  Neutralizing activity IC50: 2.7 nM
Cynomolgus monkey EL [2]
  Neutralizing activity IC50: 3.1 nM
[3]
  Neutralizing activity IC50: 5.8 nM
Baboon EL [6]
  Kd: 3.3 nM
  koff: 0.00062 s⁻¹
  kon: 190000 M⁻¹ s⁻¹
Cynomolgus monkey EL [7]
  Kd: 3.9 nM
  koff: 0.00081 s⁻¹
  kon: 210000 M⁻¹ s⁻¹
[8]
  Kd: 0.5 nM
  koff: 0.0001 s⁻¹
  kon: 210000 M⁻¹ s⁻¹
Cynomolgus monkey EL [10]
  EC50 (read off the curve): ~20 ng/mL
Mouse EL
  binding result: no binding (tested: about 330 ng/mL)
[11]
  EC50 (read off the curve): ~7 ng/mL

B3: 2D5 (antibody, mouse IgG2a, V domains shown)
VH: B2 VH with A61T, Y80F, F86L, A115T, A118V
VL: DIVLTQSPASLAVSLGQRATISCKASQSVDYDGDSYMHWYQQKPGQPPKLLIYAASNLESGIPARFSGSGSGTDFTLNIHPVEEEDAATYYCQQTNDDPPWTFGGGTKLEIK
notes: mouse IgG2a from hybridoma
Baboon EL [1]
  Neutralizing activity IC50: 2.9 nM
Cynomolgus monkey EL [2]
  Neutralizing activity IC50: 3 nM
[3]
  Neutralizing activity IC50: 2.7 nM
Baboon EL [6]
  Kd: 2.2 nM
  koff: 0.00017 s⁻¹
  kon: 77000 M⁻¹ s⁻¹
Cynomolgus monkey EL [7]
  Kd: 3.8 nM
  koff: 0.00028 s⁻¹
  kon: 74000 M⁻¹ s⁻¹
[8]
  Kd: 1.1 nM
  koff: 9.3e-05 s⁻¹
  kon: 85000 M⁻¹ s⁻¹
Baboon EL [9]
  EC50 (read off the curve): ~20 ng/mL
Cynomolgus monkey EL [10]
  EC50 (read off the curve): ~10 ng/mL
Mouse EL
  binding result: no binding (tested: about 330 ng/mL)
[11]
  EC50 (read off the curve): ~8 ng/mL

B4: 7D4 (antibody, mouse IgG1, V domains shown)
VH: B2 VH with G44D, F86L, A115T, A118V
VL: B2 VL with K49Q, K59G, Q93H, T95S
notes: mouse IgG1 from hybridoma
Baboon EL [1]
  Neutralizing activity IC50: 2.6 nM
Cynomolgus monkey EL [2]
  Neutralizing activity IC50: 2.1 nM
[3]
  Neutralizing activity IC50: 3.7 nM
Baboon EL [6]
  Kd: 4.5 nM
  koff: 0.00035 s⁻¹
  kon: 78000 M⁻¹ s⁻¹
Cynomolgus monkey EL [7]
  Kd: 1.9 nM
  koff: 0.00023 s⁻¹
  kon: 120000 M⁻¹ s⁻¹
[8]
  Kd: 0.97 nM
  koff: 0.00011 s⁻¹
  kon: 110000 M⁻¹ s⁻¹
Baboon EL [9]
  EC50 (read off the curve): ~9 ng/mL
Cynomolgus monkey EL [10]
  EC50 (read off the curve): ~10 ng/mL
Mouse EL
  binding result: no binding (tested: about 330 ng/mL)
[11]
  EC50 (read off the curve): ~6 ng/mL

B5: 53A11 (antibody, mouse IgG2a, V domains shown)
VH: EVQLQQSGPELLKPGASVKISCKASGYTFTDYTMHWVKQSHGKSLEWIGGINPYYGGTTYNEKFKDKATLTVDKSSSTAYMELRSLTSEDSAVYYCAKGDYYGGSYNYWGQGTTLTVSS
VL: DIVLTQSLATLSVTPGDSVSLSCRASQDISNSLHWYQQKSHESPRLLIKYASQSISGIPSRFSGSGSGTDFTLSINSVETEDFGMYFCQQSNSWPYTFGGGTKLEIK
notes: mouse IgG2a from hybridoma; also called 53A11 (mouse mAb)
Baboon EL [1]
  Neutralizing activity IC50: 2.4 nM
Cynomolgus monkey EL [2]
  Neutralizing activity IC50: 1.9 nM
[3]
  Neutralizing activity IC50: 2.3 nM
[4]
  Neutralizing activity IC50: 2.6 nM
Cynomolgus monkey EL [5]
  Neutralizing activity IC50: 2.7 nM
Baboon EL [6]
  Kd: 1.6 nM
  koff: 0.00026 s⁻¹
  kon: 170000 M⁻¹ s⁻¹
Cynomolgus monkey EL [7]
  Kd: 4.2 nM
  koff: 0.00038 s⁻¹
  kon: 91000 M⁻¹ s⁻¹
[8]
  Kd: 0.63 nM
  koff: 0.00011 s⁻¹
  kon: 180000 M⁻¹ s⁻¹
Baboon EL [9]
  EC50 (read off the curve): ~20 ng/mL
Cynomolgus monkey EL [10]
  EC50 (read off the curve): ~10 ng/mL
Mouse EL
  binding result: no binding (tested: about 330 ng/mL)
[11]
  EC50 (read off the curve): ~6 ng/mL

B6: h53A11-S4 (antibody, V domains shown)
VH: QVQLVQSGAEVKKPGASVKVSCKASGYTFTDYTMHWVRQAPGQRLEWMGGINPYYGGTTYNEKFKDRVTITRDTSASTAYMELSSLRSEDTAVYYCARGDYYGGSYNYWGQGTTVTVSS
VL: EIVMTQSPATLSVSPGERATLSCRASQDISNSLHWYQQKPGQAPRLLIKYASQSISGIPARFSGSGSGTEFTLTISSLQSEDFAVYYCQQSNSWPYTFGQGTKLEIK
Cynomolgus monkey EL [5]
  Neutralizing activity IC50: 12 nM

B7: 23H8 (antibody, mouse IgG2a, V domains shown)
VH: EVQLQQSGPELLKPGASVKISCKASGYTFTDNTIHWVKQSHGKSLEWIGHINPYYGGTNNNEKFKDKATLTVDKSSSTAYMELRSLTSEDSAIYYCARKGIYYSSPFDYWGQGTTLTVSS
VL: DIQMTQTTSSLSASLGDRVTISCRASQDINNYLNWYQQKPDGTVKLLISYTSKLHSGVPSRFSGSGSGTDYSLTISNLEREDFATYFCQQGNTLPFTFGSGTNLEIK
notes: mouse IgG2a from hybridoma; also called 23H8 (mouse mAb)
Baboon EL [1]
  Neutralizing activity IC50: 3.2 nM
Cynomolgus monkey EL [2]
  Neutralizing activity IC50: 2.7 nM
Rabbit EL
  Neutralizing activity IC50: 67 nM
[3]
  Neutralizing activity IC50: 1.7 nM
[4]
  Neutralizing activity IC50: 1.7 nM
Cynomolgus monkey EL [5]
  Neutralizing activity IC50: 1.4 nM
Baboon EL [6]
  Kd: 2.9 nM
  koff: 0.00044 s⁻¹
  kon: 150000 M⁻¹ s⁻¹
Cynomolgus monkey EL [7]
  Kd: 6.1 nM
  koff: 0.00075 s⁻¹
  kon: 120000 M⁻¹ s⁻¹
[8]
  Kd: 0.87 nM
  koff: 0.00011 s⁻¹
  kon: 120000 M⁻¹ s⁻¹
Baboon EL [9]
  EC50 (read off the curve): ~20 ng/mL
Cynomolgus monkey EL [10]
  EC50 (read off the curve): ~8 ng/mL
Mouse EL
  binding result: no binding (tested: about 330 ng/mL)
[11]
  EC50 (read off the curve): ~4 ng/mL
